Our source for the binding signal values is PMC10421740, “A universal deep-learning model for zinc finger design enables transcription factor reprogramming”.

The target of data set [1] is ZFN pair 18BC_designed + 18ED_designed (synthetic construct, UniProt P14870;P14870 384-579;384-579). Briefly: Zn; U2OS eGFP disruption, 3 days after nucleofection. Conditions: tags: N-terminal 3xFLAG and SV40 NLS (kept in the assay, left out here); copies: 1;1.
Data set [2] concerns the target ZFN pair 18BC_selected + 18ED_selected (synthetic construct, UniProt P14870;P14870 384-579;384-579). The description is as above. To be noted: tags: N-terminal 3xFLAG and SV40 NLS (kept in the assay, left out here); copies: 1;1.
Data set [3] deals with ZIM3 reprogrammed with array DPH1TSSR (synthetic construct, UniProt Q96PE6 1-166). Nature of the data set: Zn; HEK293T, RT-qPCR 3 days after transfection.
Data set [4] addresses ZFN pair 10BC_substituted + 10ED_substituted (synthetic construct, UniProt P14870;P14870 384-579;384-579). Briefly: Zn; U2OS eGFP disruption, 3 days after nucleofection. Conditions: tags: N-terminal 3xFLAG and SV40 NLS (kept in the assay, left out here); copies: 1;1.
The target of data set [5] is ZFN pair 10BC_designed + 10ED_designed (synthetic construct, UniProt P14870;P14870 384-579;384-579). Described as above. Conditions: tags: N-terminal 3xFLAG and SV40 NLS (kept in the assay, left out here); copies: 1;1.
The target in data set [6] is ZFN pair 10BC_selected + 10ED_selected (synthetic construct, UniProt P14870;P14870 384-579;384-579). The data set is described as above. Conditions: tags: N-terminal 3xFLAG and SV40 NLS (kept in the assay, left out here); copies: 1;1.
Another data set addresses array CDKN1C 125RC (synthetic construct). Nature of the data set: Zn; HEK293T, RNA-seq. Conditions: tags: N-terminal SV40 NLS, C-terminal GS linker + VP64 (left out).
The target in data set [7] is T1, KLF6 reprogrammed with array CDKN1C_200 8Q (synthetic construct, UniProt Q99612 1-199).
T1 chain: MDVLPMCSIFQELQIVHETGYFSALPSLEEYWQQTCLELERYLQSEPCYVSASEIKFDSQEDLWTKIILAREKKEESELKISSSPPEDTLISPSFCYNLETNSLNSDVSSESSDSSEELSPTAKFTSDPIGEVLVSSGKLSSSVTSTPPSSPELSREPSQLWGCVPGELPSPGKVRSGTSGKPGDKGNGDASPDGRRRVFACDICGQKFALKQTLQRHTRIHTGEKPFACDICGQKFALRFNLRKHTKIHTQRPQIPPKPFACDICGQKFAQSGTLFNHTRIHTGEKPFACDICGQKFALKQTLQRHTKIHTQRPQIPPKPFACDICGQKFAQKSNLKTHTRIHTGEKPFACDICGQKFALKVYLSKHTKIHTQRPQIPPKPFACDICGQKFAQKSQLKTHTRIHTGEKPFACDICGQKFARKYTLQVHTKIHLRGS
Briefly: Zn; HEK293T, RT-qPCR 3 days after transfection. Conditions: tags: C-terminal linker + 3xFLAG (left out).

Data set [8] has as its target T2, KLF6 reprogrammed with array CDKN1C_200 F3-8 (synthetic construct, UniProt Q99612 1-199).
T2 chain: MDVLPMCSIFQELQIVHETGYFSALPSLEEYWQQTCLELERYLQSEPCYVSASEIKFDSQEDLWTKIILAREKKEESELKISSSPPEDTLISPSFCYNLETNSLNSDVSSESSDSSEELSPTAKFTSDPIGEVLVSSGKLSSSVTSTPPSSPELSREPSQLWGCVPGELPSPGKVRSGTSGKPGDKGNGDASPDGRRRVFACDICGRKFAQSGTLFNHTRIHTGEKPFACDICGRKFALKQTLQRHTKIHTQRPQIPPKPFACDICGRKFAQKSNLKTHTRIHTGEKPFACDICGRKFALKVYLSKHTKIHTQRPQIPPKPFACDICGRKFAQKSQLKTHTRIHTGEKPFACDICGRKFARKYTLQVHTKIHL
Nature of the data set: Zn; HEK293T, RT-qPCR 3 days after transfection.

For data set [9], the target named is T3, KLF6 reprogrammed with array CDKN1C_200 (synthetic construct, UniProt Q99612 1-199).
T3 chain: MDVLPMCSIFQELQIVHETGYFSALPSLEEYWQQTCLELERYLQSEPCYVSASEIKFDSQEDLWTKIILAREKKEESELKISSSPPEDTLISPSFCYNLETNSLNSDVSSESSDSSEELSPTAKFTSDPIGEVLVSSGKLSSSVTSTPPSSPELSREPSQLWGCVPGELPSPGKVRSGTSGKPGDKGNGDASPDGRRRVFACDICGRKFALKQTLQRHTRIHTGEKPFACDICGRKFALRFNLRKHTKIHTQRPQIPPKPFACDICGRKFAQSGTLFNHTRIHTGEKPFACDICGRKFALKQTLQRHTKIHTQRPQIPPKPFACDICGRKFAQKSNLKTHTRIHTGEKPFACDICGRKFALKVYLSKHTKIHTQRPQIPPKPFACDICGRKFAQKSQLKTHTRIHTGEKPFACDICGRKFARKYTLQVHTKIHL
Nature of the data set: Zn; HEK293T, RT-qPCR 3 days after transfection.

Data set [10] has as its target ZIM3 reprogrammed with array Rab1a T2R8 (synthetic construct, UniProt Q96PE6 1-166). Briefly: Zn; HEK293T, RT-qPCR 3 days after transfection.
The target of data set [11] is ZIM3 reprogrammed with array DPH1_15 F1-6 (synthetic construct, UniProt Q96PE6 1-166). Briefly: Zn; HEK293T, RT-qPCR 3 days after transfection.
For data set [12], the target named is ZIM3 reprogrammed with array DPH1_15 (synthetic construct, UniProt Q96PE6 1-166). Nature of the data set: Zn; HEK293T, RT-qPCR 3 days after transfection.
The target in data set [13] is ZIM3 reprogrammed with array DPH1_15 F3-8 (synthetic construct, UniProt Q96PE6 1-166). Nature of the data set: Zn; HEK293T, RT-qPCR 3 days after transfection.
Data set [14] has as its target ZIM3 reprogrammed with array DPH1_15 F1-8 Q (synthetic construct, UniProt Q96PE6 1-166). Nature of the data set: Zn; HEK293T, RT-qPCR 3 days after transfection.
In data set [15] the target is ZIM3 reprogrammed with array UBE4A T1R8 (synthetic construct, UniProt Q96PE6 1-166). Nature of the data set: Zn; HEK293T, RT-qPCR 3 days after transfection.
For data set [16], the target named is ZIM3 reprogrammed with array DPH1T2F8 (synthetic construct, UniProt Q96PE6 1-166). Nature of the data set: Zn; HEK293T, RT-qPCR 3 days after transfection.
Data set [17] addresses ZFN pair 12BC_designed + 12ED_designed (synthetic construct, UniProt P14870;P14870 384-579;384-579). Nature of the data set: Zn; U2OS eGFP disruption, 3 days after nucleofection. To be noted: tags: N-terminal 3xFLAG and SV40 NLS (kept in the assay, left out here); copies: 1;1.
The target of data set [18] is T4, ZFN pair 12BC_selected + 12ED_selected (synthetic construct, UniProt P14870;P14870 384-579;384-579).
T4 chain 1: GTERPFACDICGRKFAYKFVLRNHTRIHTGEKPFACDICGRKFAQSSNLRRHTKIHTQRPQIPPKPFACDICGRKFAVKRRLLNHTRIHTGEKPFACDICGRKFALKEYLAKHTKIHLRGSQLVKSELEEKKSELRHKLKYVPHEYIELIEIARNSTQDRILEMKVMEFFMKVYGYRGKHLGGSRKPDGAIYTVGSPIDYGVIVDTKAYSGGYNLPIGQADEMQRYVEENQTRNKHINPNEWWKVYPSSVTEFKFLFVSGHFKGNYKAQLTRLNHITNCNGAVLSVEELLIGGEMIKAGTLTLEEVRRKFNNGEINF
T4 chain 2: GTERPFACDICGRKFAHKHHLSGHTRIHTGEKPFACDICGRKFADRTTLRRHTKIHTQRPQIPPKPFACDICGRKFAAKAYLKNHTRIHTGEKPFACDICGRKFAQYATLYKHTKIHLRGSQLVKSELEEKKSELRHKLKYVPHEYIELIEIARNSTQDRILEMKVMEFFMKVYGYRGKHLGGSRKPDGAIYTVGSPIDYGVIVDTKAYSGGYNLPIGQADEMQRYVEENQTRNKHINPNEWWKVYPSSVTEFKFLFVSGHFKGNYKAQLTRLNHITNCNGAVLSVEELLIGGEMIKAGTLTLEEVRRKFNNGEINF
The description is as above. To be noted: tags: N-terminal 3xFLAG and SV40 NLS (kept in the assay, left out here); copies: 1;1.

Data set [19] has as its target ZFN pair 12BC_substituted + 12ED_substituted (synthetic construct, UniProt P14870;P14870 384-579;384-579). The data set is described as above. Conditions: tags: N-terminal 3xFLAG and SV40 NLS (kept in the assay, left out here); copies: 1;1.
Data set [20] has as its target ZIM3 reprogrammed with array DPH1T2R8 (synthetic construct, UniProt Q96PE6 1-166). Nature of the data set: Zn; HEK293T, RT-qPCR 3 days after transfection.
Data set [21] has as its target ZFN pair 1BC_design + 1ED_design (synthetic construct, UniProt P14870;P14870 384-579;384-579). Briefly: Zn; U2OS eGFP disruption, 3 days after nucleofection. Conditions: tags: N-terminal 3xFLAG and SV40 NLS (kept in the assay, left out here); copies: 1;1.
In data set [22] the target is ZFN pair 1BC_selected + 1ED_selected (synthetic construct, UniProt P14870;P14870 384-579;384-579). The description is as above. Conditions: tags: N-terminal 3xFLAG and SV40 NLS (kept in the assay, left out here); copies: 1;1.
Data set [23] addresses ZIM3 reprogrammed with array UBE4A T1F8 (synthetic construct, UniProt Q96PE6 1-166). Briefly: Zn; HEK293T, RT-qPCR 3 days after transfection.

Chain of array CDKN1C 125RC (synthetic construct) (chain, as listed by the source): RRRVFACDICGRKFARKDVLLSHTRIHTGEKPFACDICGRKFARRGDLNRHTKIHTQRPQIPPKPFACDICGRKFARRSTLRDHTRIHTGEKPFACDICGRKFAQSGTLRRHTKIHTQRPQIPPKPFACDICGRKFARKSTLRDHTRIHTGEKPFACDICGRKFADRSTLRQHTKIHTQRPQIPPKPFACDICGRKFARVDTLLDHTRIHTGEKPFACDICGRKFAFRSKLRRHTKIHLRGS
Chain of ZIM3 reprogrammed with array DPH1TSSR (Q96PE6 other isoform, or with tags, fused parts or gaps): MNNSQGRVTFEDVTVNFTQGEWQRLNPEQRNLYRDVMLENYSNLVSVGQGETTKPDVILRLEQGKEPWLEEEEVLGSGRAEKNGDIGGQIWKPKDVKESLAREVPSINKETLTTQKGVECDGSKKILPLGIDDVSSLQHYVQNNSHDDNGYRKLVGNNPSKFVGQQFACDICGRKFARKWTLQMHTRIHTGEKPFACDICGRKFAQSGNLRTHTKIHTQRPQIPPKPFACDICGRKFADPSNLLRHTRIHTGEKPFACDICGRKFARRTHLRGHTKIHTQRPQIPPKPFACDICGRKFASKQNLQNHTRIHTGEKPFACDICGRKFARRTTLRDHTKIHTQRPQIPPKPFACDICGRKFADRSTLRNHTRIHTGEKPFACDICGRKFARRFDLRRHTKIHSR
Chain of ZIM3 reprogrammed with array DPH1T2R8 (Q96PE6 other isoform, or with tags, fused parts or gaps): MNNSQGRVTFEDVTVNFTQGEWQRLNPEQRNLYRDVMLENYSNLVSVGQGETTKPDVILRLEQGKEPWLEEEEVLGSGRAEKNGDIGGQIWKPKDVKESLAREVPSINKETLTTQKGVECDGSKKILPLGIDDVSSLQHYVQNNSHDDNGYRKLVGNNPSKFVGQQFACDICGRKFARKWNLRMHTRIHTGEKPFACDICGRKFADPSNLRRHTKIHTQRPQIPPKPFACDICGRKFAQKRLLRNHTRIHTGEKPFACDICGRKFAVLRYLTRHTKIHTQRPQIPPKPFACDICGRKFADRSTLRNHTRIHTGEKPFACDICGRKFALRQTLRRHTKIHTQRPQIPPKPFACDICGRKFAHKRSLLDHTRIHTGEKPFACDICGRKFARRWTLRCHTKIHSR
Chain of ZIM3 reprogrammed with array UBE4A T1R8 (Q96PE6 other isoform, or with tags, fused parts or gaps): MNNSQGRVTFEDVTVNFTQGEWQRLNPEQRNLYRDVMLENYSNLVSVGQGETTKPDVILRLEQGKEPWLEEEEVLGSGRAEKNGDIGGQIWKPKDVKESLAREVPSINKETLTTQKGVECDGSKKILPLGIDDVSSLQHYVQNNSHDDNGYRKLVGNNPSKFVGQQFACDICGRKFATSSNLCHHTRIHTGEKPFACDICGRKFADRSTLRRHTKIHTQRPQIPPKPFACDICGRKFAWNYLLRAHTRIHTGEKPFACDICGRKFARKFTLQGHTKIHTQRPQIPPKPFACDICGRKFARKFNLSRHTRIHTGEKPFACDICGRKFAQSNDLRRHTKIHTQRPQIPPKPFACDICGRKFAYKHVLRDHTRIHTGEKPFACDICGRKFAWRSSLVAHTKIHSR
Chain of ZIM3 reprogrammed with array DPH1T2F8 (Q96PE6 other isoform, or with tags, fused parts or gaps): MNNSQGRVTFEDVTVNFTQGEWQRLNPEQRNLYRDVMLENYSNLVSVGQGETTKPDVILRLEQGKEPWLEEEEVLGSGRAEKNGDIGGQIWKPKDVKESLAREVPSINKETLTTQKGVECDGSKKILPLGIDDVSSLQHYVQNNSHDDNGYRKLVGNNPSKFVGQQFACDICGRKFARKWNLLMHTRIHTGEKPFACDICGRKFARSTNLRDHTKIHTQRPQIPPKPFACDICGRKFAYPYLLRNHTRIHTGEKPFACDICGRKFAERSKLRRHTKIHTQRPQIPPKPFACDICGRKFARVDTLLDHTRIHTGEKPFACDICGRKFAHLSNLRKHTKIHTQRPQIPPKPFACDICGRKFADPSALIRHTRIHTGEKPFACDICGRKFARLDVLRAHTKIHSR
Chain of ZIM3 reprogrammed with array DPH1_15 F1-8 Q (Q96PE6 other isoform, or with tags, fused parts or gaps): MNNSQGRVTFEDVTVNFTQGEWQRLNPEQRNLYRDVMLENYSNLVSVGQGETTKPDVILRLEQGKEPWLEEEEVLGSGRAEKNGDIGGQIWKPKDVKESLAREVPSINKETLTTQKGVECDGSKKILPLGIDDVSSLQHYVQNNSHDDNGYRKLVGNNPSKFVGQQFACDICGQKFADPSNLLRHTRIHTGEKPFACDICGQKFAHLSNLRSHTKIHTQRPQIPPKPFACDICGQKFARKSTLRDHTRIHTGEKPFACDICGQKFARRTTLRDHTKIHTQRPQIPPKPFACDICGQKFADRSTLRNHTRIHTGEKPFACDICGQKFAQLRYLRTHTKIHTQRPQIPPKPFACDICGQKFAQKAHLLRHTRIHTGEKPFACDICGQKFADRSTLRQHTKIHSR
Chain of ZIM3 reprogrammed with array Rab1a T2R8 (Q96PE6 other isoform, or with tags, fused parts or gaps): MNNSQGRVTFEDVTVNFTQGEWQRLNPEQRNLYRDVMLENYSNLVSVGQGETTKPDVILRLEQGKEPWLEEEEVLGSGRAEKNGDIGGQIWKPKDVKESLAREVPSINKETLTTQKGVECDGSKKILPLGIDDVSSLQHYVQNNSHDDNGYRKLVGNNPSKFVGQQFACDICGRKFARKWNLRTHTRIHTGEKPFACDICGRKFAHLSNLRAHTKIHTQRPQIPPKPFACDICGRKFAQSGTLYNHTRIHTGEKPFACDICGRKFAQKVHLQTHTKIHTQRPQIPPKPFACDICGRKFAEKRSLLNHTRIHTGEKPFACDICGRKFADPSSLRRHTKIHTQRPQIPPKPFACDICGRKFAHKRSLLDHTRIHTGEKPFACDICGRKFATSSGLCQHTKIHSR
Chain of ZIM3 reprogrammed with array DPH1_15 F3-8 (Q96PE6 other isoform, or with tags, fused parts or gaps): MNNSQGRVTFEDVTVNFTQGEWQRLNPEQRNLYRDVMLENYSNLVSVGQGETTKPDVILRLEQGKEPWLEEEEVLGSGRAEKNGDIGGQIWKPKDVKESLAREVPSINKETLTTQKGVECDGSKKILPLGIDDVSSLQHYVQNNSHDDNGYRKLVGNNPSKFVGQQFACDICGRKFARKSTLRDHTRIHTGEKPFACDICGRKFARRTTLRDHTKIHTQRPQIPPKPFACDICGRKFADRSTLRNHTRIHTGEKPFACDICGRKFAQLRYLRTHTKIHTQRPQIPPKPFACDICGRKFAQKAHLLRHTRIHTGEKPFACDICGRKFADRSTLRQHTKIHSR
Chain of ZIM3 reprogrammed with array DPH1_15 F1-6 (Q96PE6 other isoform, or with tags, fused parts or gaps): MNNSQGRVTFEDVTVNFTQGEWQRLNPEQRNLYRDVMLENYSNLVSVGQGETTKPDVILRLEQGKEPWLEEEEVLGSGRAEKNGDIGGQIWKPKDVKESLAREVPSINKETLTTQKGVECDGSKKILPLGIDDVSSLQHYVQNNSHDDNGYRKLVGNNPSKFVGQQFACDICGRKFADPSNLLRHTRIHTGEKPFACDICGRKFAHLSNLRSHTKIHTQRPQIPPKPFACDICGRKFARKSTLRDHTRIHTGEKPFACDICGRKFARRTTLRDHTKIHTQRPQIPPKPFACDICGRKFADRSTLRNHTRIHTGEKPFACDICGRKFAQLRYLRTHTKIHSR
Chain of ZIM3 reprogrammed with array UBE4A T1F8 (Q96PE6 other isoform, or with tags, fused parts or gaps): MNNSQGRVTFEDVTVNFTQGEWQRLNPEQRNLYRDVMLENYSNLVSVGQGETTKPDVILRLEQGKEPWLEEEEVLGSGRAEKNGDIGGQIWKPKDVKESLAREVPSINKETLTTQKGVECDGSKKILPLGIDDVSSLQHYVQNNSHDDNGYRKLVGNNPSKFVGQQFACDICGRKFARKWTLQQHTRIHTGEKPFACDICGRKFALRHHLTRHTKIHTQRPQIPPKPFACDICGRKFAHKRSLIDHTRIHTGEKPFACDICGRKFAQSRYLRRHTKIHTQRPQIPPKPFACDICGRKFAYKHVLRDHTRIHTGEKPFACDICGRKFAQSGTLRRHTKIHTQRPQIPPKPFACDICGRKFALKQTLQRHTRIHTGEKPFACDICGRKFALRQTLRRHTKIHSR
Chain of ZIM3 reprogrammed with array DPH1_15 (Q96PE6 other isoform, or with tags, fused parts or gaps): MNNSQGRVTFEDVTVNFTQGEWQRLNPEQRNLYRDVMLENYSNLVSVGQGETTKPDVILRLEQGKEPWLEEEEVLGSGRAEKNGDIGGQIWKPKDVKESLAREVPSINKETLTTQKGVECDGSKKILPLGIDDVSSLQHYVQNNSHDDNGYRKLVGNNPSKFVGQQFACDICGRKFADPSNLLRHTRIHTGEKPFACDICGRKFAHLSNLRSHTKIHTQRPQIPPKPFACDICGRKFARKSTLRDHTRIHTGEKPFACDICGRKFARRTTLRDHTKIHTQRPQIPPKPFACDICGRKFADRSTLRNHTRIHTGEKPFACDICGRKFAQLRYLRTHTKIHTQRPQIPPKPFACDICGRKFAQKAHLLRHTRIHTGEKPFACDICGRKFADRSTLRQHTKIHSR

B1: eGFP site 18 (8 fingers) (dsDNA)
DNA 1: GCAGCACGACTTCTTCAAGTCCGCCATGCCCGAA
DNA 2: TTCGGGCATGGCGGACTTGAAGAAGTCGTGCTGC
Consider B1, for which the binding signal in [1] is ~70 % GFP-negative cells (higher = more activity); in data set [2], ~47 % GFP-negative cells (higher = more activity).

B2: DPH1TSSR (dsDNA)
DNA 1: CCTGCCTGCGCATGTGGTACTAAAAAGA
DNA 2: TCTTTTTAGTACCACATGCGCAGGCAGG
As to B2, the binding signal in data set [3] was ~0.58 relative expression (lower = more activity, repressor).

B3: eGFP site 10 (8 fingers) (dsDNA)
DNA 1: TACGGCAAGCTGACCCTGAAGTTCATCTGCACCA
DNA 2: TGGTGCAGATGAACTTCAGGGTCAGCTTGCCGTA
Consider B3, for which the binding signal in data set [4] is ~38 % GFP-negative cells (higher = more activity); in [5], ~28 % GFP-negative cells (higher = more activity); in [6], ~59 % GFP-negative cells (higher = more activity).

B4: CDK125RC (dsDNA)
DNA 1: GCGGCCCGGCCCCCGCGCACCGCCCATTGGC
DNA 2: GCCAATGGGCGGTGCGCGGGGGCCGGGCCGC
Consider B4, for which, in the data set with array CDKN1C 125RC, the binding signal was ~2.2 log2 fold change (RNA-seq) (higher = more activity).

B5: CDKN1C_200 (dsDNA)
DNA 1: TTGAAACTGAAAATACTACATTATGCTA
DNA 2: TAGCATAATGTAGTATTTTCAGTTTCAA
As to B5, the binding signal is ~11 relative expression (higher = more activity) in data set [7], ~3.2 relative expression (higher = more activity) in data set [8] and ~17 relative expression (higher = more activity) in [9].

B6: Rab1a T2R8 (dsDNA)
DNA 1: CTACTCCGTCCCCTAGAACACAATCAGC
DNA 2: GCTGATTGTGTTCTAGGGGACGGAGTAG
As to B6, the binding signal in data set [10] was ~0.41 relative expression (lower = more activity, repressor).

B7: DPH1_15 (dsDNA)
DNA 1: CCCGGATACGACCAGCGCCGCCATCACC
DNA 2: GGTGATGGCGGCGCTGGTCGTATCCGGG
Regarding B7, the binding signal in data set [11] was ~0.62 relative expression (lower = more activity, repressor); in data set [12] it was ~0.13 relative expression (lower = more activity, repressor); in [13], ~0.12 relative expression (lower = more activity, repressor); in data set [14], ~0.67 relative expression (lower = more activity, repressor).

B8: UBE4A T1R8 (dsDNA)
DNA 1: TGTCTTACCAGAGCCTGAAGTGCCAGCA
DNA 2: TGCTGGCACTTCAGGCTCTGGTAAGACA
As for B8, the binding signal in data set [15] was ~0.22 relative expression (lower = more activity, repressor).

B9: DPH1T2F8 (dsDNA)
DNA 1: CTGGTCGTATCCGGGGCAGCGGAGCAGG
DNA 2: CCTGCTCCGCTGCCCCGGATACGACCAG
In the case of B9, the binding signal in data set [16] is ~0.67 relative expression (lower = more activity, repressor).

B10: eGFP site 12 (8 fingers) (dsDNA)
DNA 1: GAAGTTCATCTGCACCACCGGCAAGCTGCCCGTG
DNA 2: CACGGGCAGCTTGCCGGTGGTGCAGATGAACTTC
In the case of B10, the binding signal in data set [17] was ~24 % GFP-negative cells (higher = more activity); in data set [18], ~65 % GFP-negative cells (higher = more activity); in data set [19], ~58 % GFP-negative cells (higher = more activity).

B11: DPH1T2R8 (dsDNA)
DNA 1: CTGCTCCGCTGCCCCGGATACGACCAGC
DNA 2: GCTGGTCGTATCCGGGGCAGCGGAGCAG
Turning to B11, in data set [20], the binding signal is ~0.77 relative expression (lower = more activity, repressor).

B12: eGFP site 1 (8 fingers) (dsDNA)
DNA 1: TGTTCACCGGGGTGGTGCCCATCCTGGTCGAGCT
DNA 2: AGCTCGACCAGGATGGGCACCACCCCGGTGAACA
Consider B12, for which the binding signal in data set [21] was ~35 % GFP-negative cells (higher = more activity); in data set [22] it was ~53 % GFP-negative cells (higher = more activity).

B13: UBE4A T1F8 (dsDNA)
DNA 1: GCTGCTGGCACTTCAGGCTCTGGTAAGA
DNA 2: TCTTACCAGAGCCTGAAGTGCCAGCAGC
In the case of B13, in data set [23], the binding signal is ~0.57 relative expression (lower = more activity, repressor).
